Experimental data as given in article PMC8390506, “Interaction of spindle assembly factor TPX2 with importins-α/β inhibits protein phase separation” (The Journal of Biological Chemistry, 2021).

Tests used:
[1] = biological target: T1, Targeting Protein for XKlp2 (TPX2), full length, wild type (Xenopus laevis, UniProt Q6NUF4 1-716); assay: SEC-MALS; Superdex-200-increase 3.2/300; importin-αΔIBB alone and TPX2 (2 μM) with importin-αΔIBB (20 μM); settings: both partners purified
T1 construct: TPX2, Xenopus laevis, full length; 1 to 716; Named GFP-TPX2 for SEC-MALS; also called GFP-TPX2; wt-TPX2; source: recombinant, purified to >95% purity
T1 sequence (looked up): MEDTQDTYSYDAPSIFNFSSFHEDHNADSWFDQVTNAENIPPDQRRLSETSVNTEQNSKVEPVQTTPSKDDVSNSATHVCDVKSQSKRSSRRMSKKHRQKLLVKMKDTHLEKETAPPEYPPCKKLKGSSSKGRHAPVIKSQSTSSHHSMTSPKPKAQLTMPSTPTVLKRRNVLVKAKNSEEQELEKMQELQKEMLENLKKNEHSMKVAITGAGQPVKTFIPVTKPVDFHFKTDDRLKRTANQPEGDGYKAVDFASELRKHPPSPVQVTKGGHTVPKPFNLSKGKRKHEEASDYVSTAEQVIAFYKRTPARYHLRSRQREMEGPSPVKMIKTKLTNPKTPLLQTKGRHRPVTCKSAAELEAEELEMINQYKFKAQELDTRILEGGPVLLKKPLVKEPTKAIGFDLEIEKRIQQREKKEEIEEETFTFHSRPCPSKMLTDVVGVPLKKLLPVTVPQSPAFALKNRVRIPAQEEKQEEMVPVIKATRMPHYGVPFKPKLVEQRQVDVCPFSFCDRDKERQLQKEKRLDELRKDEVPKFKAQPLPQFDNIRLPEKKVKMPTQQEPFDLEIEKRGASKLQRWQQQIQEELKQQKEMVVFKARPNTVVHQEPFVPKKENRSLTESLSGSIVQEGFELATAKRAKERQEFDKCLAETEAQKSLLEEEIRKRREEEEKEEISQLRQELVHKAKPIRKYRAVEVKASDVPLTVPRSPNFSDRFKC

[2] = biological target: the molecule itself; assay: as above
[3] = biological target: T1, Targeting Protein for XKlp2 (TPX2), …; assay: cell-based or functional assay
[4] = biological target: T2, TPX2 1 to 178 with the KKLK motif mutated (K123A, K124A, K126A) (Xenopus laevis, UniProt Q6NUF4 1-178, K123A | K124A | K126A); assay: BLI; Octet (ForteBio); TPX2 attached to sensors, importin concentration varied; normalized amplitudes; apparent Kd; settings: both partners purified
T2 construct: TPX2, Xenopus laevis, amino acids 1-178 with the lysines of KKLK (123-126) mutated to alanines; also called TPX2 1 to 178 (K123A, K124A, K126A); source: recombinant, purified to >95% purity
T2 sequence (looked up): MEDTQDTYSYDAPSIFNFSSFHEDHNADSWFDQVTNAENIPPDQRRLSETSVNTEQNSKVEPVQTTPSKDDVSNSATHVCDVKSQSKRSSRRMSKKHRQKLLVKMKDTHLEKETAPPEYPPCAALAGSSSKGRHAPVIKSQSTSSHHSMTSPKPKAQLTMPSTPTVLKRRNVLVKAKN

[5] = biological target: triple-mutant TPX2 (3M-TPX2) (Xenopus laevis, UniProt Q6NUF4 1-716, K123A | K124A | K126A | K284A | R285A | K327A | K330A); assay: as above; settings: both partners purified
[6] = biological target: T1, Targeting Protein for XKlp2 (TPX2), …; assay: as above; settings: both partners purified
TPX2 construct 1 to 178 = biological target: T3, TPX2 construct 1 to 178 (Xenopus laevis, UniProt Q6NUF4 1-178); assay: as above; settings: both partners purified
T3 construct: TPX2, Xenopus laevis, amino acids 1-178; also called wild-type-1-178 TPX2 construct; TPX2 1 to 178; source: recombinant, purified to >95% purity
T3 sequence (looked up): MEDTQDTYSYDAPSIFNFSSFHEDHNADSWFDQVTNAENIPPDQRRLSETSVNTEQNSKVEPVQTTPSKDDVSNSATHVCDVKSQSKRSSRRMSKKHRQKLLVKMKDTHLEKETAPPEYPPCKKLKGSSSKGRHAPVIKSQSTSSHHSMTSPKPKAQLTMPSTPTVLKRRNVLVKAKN

TPX2 construct 1 to 260 = biological target: T4, TPX2 construct 1 to 260 (Xenopus laevis, UniProt Q6NUF4 1-260); assay: as above; settings: both partners purified
T4 construct: TPX2, Xenopus laevis, amino acids 1-260; also called TPX2 1 to 260; source: recombinant, purified to >95% purity
T4 sequence (looked up): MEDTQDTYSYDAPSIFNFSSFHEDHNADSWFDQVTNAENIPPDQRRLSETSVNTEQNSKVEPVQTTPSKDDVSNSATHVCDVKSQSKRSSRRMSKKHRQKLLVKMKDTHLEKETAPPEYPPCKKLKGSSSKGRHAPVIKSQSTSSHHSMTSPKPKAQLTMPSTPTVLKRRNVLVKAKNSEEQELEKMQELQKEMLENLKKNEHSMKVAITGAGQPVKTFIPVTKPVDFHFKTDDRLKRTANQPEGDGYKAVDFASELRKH

stoichiometry N [1]: > 1 importin-αΔIBB:TPX2
inhibition of TPX2 condensation (fluorescence microscopy; TPX2 1 μM, importin-αΔIBB 1x to 20x; enhancement at lower concentrations) [3]: ~20 fold excess
fold loss of binding against the wild-type 1-178 construct [4]: 10 fold
Kd [5]: 410 ± 70 nM
Kd [6]: 61 ± 10 nM
Kd (TPX2 construct 1 to 178): 15 ± 3 nM
Kd (TPX2 construct 1 to 260): 20 ± 4 nM
B1: importin-αΔIBB (truncated importin-α without the importin-β-binding domain) (domain or fragment)
chain: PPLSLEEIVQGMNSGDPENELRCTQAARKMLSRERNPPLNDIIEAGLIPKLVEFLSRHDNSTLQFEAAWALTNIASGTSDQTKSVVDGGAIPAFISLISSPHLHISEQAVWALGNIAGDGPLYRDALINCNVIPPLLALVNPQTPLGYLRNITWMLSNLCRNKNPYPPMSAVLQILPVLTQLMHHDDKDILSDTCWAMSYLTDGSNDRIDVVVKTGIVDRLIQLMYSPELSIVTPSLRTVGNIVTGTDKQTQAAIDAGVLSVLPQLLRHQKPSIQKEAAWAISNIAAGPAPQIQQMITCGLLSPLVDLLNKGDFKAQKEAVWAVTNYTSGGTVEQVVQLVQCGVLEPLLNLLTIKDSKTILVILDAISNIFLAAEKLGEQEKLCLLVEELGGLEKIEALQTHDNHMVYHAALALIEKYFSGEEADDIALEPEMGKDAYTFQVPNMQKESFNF
stoichiometry N [2]: 2
